Assay results: the supplement of paper PMC9170038

Tested on: MS2 coat protein
Assay: apparent KD of MS2 coat protein; designed switch direction (-1 OFF switch, 1 ON switch): -1; higher = weaker reporter binding
Outline: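 On Illumina chips, designed RNA switches with common flanks were made by stalled E. coli RNA polymerase. Titrations with SNAP-549-labelled MS2 coat protein, doubling from 0.7 or 1.5 nM to 3 µM, were done with no input, with 200 uM small-molecule ligand, or with an oligonucleotide input. Apparent KD is the median per design over clusters, from curve fits of normalised cluster fluorescence.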

[1] = input ligand: microRNA oligo, concentration not stated
[2] = Eterna round: R95, input ligand: FMN 200 uM
[3] = Eterna round: R95, input ligand: microRNA oligo, concentration not stated
[4] = Eterna round: R95, input ligand: none

AAAUUAGCAAGUAGAUCCGACAUGAGGAUCACCCAUGUAAUCUAAAAUUACGCUGCACGAAAGUGCGCUCGUCUUAG [Sensor-V1 #13] (Eterna round: R97, puzzle: Sensor, turn-off variant 1)
apparent KD of MS2 coat protein (input ligand: FMN 200 uM): 0.362 µM | apparent KD of MS2 coat protein (input ligand: none): 0.405 µM

UUUUUAUAUGAAGGAUAUACUUAACAUGAGGAUCACCCAUGUGGUGUUGUGAGUGAGUGAGUUUAGUAGAAGGUCAAGUCUUUU [JMF's solution 36] (Eterna round: R96, puzzle: Exclusion NG 2)
apparent KD of MS2 coat protein (input ligand: FMN 200 uM): 0.555 µM | apparent KD of MS2 coat protein [1]: 0.383 µM | apparent KD of MS2 coat protein (input ligand: none): 0.361 µM

GUGGGUCCUCACGGUGCUACAUGAGGAUCACCCAUGUGGAUUGAGGAUAUCGUAACCCUACGGGACGAGAAGGCAGUUUACUGU [Ex NG3 #100] (Eterna round: R96, puzzle: Exclusion NG 3)
apparent KD of MS2 coat protein (input ligand: FMN 200 uM): 0.0485 µM | apparent KD of MS2 coat protein [1]: 0.0147 µM | apparent KD of MS2 coat protein (input ligand: none): 0.0231 µM

AUGUUUGUAGUGAGGAUAUCGUUGAGGAAGAGGAUCGAGAAGGCACAUGAGGAUCACCCAUGUAAGAUGUGGUA [JR_BMOE4_Sub081] (puzzle: Brourd's mod of Exclusion 4)
apparent KD of MS2 coat protein [2]: 0.0699 µM | apparent KD of MS2 coat protein [3]: 0.0612 µM | apparent KD of MS2 coat protein [4]: 0.0555 µM

UGAGUGCUGCGAGGAUAUACAUGAGGAUCACCCAUGUAAGCCUGUGAGGCUUUGCCUCACAGGAUGUAGAAGGCGCAGUACUCU [JL ENG2 1.17] (Eterna round: R96, puzzle: Exclusion NG 2)
apparent KD of MS2 coat protein (input ligand: FMN 200 uM): 0.0125 µM | apparent KD of MS2 coat protein [1]: 0.00919 µM | apparent KD of MS2 coat protein (input ligand: none): 0.0135 µM

GGUGCGUGUGUGAGGAUAUGCUGGUCCUUGGCUCGGCAGAAGGCACAUGAGGAUCACCCAUGUGGUGUCGUGCC [salish99_Bmod_ex4_057] (puzzle: Brourd's mod of Exclusion 4)
apparent KD of MS2 coat protein [3]: 0.0199 µM

GCCAGAGCAGGAUAUUGAAUAAUUCACAUGAGGAUCACCCAUGUCCAGCGAAAGCUGGAACGAGAAGGGCUCUGGC [Fiskers Ex 5 - 5] (puzzle: Exclusion 5)
apparent KD of MS2 coat protein [2]: 0.0125 µM | apparent KD of MS2 coat protein [3]: 0.0117 µM | apparent KD of MS2 coat protein [4]: 0.0111 µM

ACAAGCUUAAAAGGUGAUAACAUGAGGAUCACCCAUGUUCGUCUUAUAAAAAUAAAAAUAAAAAAUAAAAAAUAAAA [Sensor V2: 61] (Eterna round: R96, puzzle: Sensor v2, turn-off variant)
apparent KD of MS2 coat protein (input ligand: FMN 200 uM): 0.0231 µM | apparent KD of MS2 coat protein [1]: 0.114 µM | apparent KD of MS2 coat protein (input ligand: none): 0.0242 µM

AGUACUAUCACGAAAGUGAUAGUACAAUAAGCUAGUGAAACAUGAGGAUCACCCAUGUCCUCAUUAGCUCGUCUUAU [JL turnoff v2 78] (Eterna round: R96, puzzle: Sensor v2, turn-off variant 2)
apparent KD of MS2 coat protein (input ligand: FMN 200 uM): 0.014 µM | apparent KD of MS2 coat protein [1]: 0.258 µM | apparent KD of MS2 coat protein (input ligand: none): 0.0164 µM

AGCGAGGCAGGAUAUACAUGAGGAUCACCCAUGUACUUGUAUGGCGUGGAACAUCGUGGUAGAAGGGCCGUGCC [EX3 #80] (Eterna round: R97, puzzle: Exclusion 3)
apparent KD of MS2 coat protein (input ligand: FMN 200 uM): 0.0927 µM | apparent KD of MS2 coat protein (input ligand: none): 0.0689 µM

CCCACGUGAGGAUAUUCAACGGUAAGCGAUCUAUGCACCUUGAAGAAGGCACAUGAGGAUCACCCAUGUCCUAA [Eternabot (L1) Solution 44] (Eterna round: R97, puzzle: Exclusion 4)
apparent KD of MS2 coat protein (input ligand: FMN 200 uM): 0.0448 µM | apparent KD of MS2 coat protein (input ligand: none): 0.0222 µM

UUUAAUUUUUUUUUUUUACAAGCUUUUUGCUCGUCUUAUACAUGAGGAUCACCCAUGUAGAUGGAGGAUAAAUUAUC [JMF 32] (puzzle: Sensor v3, turn-off variant 2)
apparent KD of MS2 coat protein [2]: 0.0144 µM | apparent KD of MS2 coat protein [3]: 0.0289 µM | apparent KD of MS2 coat protein [4]: 0.0152 µM

GUUAACGAAGAGGAUAUAUGAUAUCAAAGCUUCAUAGAAGGCUUCACAUGAGGAUCACCCAUGUGAUCUUCAAU [jl-ex6-4.08 ViennaUCT mod] (Eterna round: R97, puzzle: Exclusion 6)
apparent KD of MS2 coat protein (input ligand: FMN 200 uM): 0.232 µM | apparent KD of MS2 coat protein (input ligand: none): 0.0426 µM

ACUCUACAUGAGGAUCACCCAUGUGAGGAUAUCAAAGCCAGAGCGGAUCUCUGGUCCAUGAGAAGGUGCAUGGU [ElNandoxlusion 3 - Jieux - Exclusion 1] (Eterna round: R97, puzzle: Exclusion 1)
apparent KD of MS2 coat protein (input ligand: FMN 200 uM): 0.0734 µM | apparent KD of MS2 coat protein (input ligand: none): 0.0223 µM

AAUAACAGAGGAUAUACUGUUUUAUGUGUUUAUUGUUUUGAACAUGAGGAUCACCCAUGUAGAAGGCUGAAUGA [JMF 66] (puzzle: Exclusion 2)
apparent KD of MS2 coat protein [3]: 0.023 µM

UUAAAUCAUGUAGGAUAUGCGUGGCGAAGCUAUGCAGAAGGACAUGAGGAUCACCCAUGUGCUUGCGUCCGCGUACGGAUGCUA [JL ENG1 1.22] (Eterna round: R96, puzzle: Exclusion NG 1)
apparent KD of MS2 coat protein (input ligand: FMN 200 uM): 0.195 µM | apparent KD of MS2 coat protein [1]: 0.094 µM | apparent KD of MS2 coat protein (input ligand: none): 0.104 µM

AGUACUAUCACGAAAGUGAUAGUACAAAAAGCAAGUGAAACAUGAGGAUCACCCAUGUCCUCAUUUGCUCGUCUUAU [JL turnoff v2 99] (Eterna round: R96, puzzle: Sensor v2, turn-off variant 2)
apparent KD of MS2 coat protein (input ligand: FMN 200 uM): 0.0122 µM | apparent KD of MS2 coat protein [1]: 0.375 µM | apparent KD of MS2 coat protein (input ligand: none): 0.0144 µM

AGGUGUAGAGGAUAUCUCUUCUCUCACAUGAGGAUCACCCAUGUCCUGGGCACCAAGGAGAGAGAAGGCUACACCA [Omei Ex5 D10] (Eterna round: R97, puzzle: Exclusion 5)
apparent KD of MS2 coat protein (input ligand: FMN 200 uM): 0.0727 µM | apparent KD of MS2 coat protein (input ligand: none): 0.271 µM

UUUAGUUCAGGAUAUGUAGAAUUUAACAUGAGGAUCACCCAUGUAGAUCCUGAAUUAACUACAGAAGGGAACAUUU [Exclusion 5: 2:a mod2] (Eterna round: R97, puzzle: Exclusion 5)
apparent KD of MS2 coat protein (input ligand: FMN 200 uM): 0.0691 µM | apparent KD of MS2 coat protein (input ligand: none): 0.0152 µM

GUCGUGCAGCUUUGCUGUACGAGUACAUGAGGAUCACCCAUGUAGGAUAUGGUACGCUUUGCGUGCCAGAAGGACGUGCGUUAG [salish99_ExNG3_r04_001] (Eterna round: R96, puzzle: Exclusion NG 3)
apparent KD of MS2 coat protein (input ligand: FMN 200 uM): 0.0533 µM | apparent KD of MS2 coat protein [1]: 0.0352 µM | apparent KD of MS2 coat protein (input ligand: none): 0.0393 µM

UUGCGAAGAGGAUAUUUUGUCAUCAACAUGAGGAUCACCCAUGUCUUCCUUUAUGCUAUAGAAGAAGGCUUCCAGU [Eternabot (L2) Solution 63] (Eterna round: R97, puzzle: Exclusion 5)
apparent KD of MS2 coat protein (input ligand: FMN 200 uM): 0.0599 µM | apparent KD of MS2 coat protein (input ligand: none): 0.0371 µM

GAGGACUUAGGAUAUACAUGAGGAUCACCCAUGUCCCUAAGCAUGCGACAGCCCUCGAGUAGAAGGGAGGACCA [Eternabot (Original) Solution 3] (Eterna round: R97, puzzle: Exclusion 3)
apparent KD of MS2 coat protein (input ligand: FMN 200 uM): 0.0148 µM | apparent KD of MS2 coat protein (input ligand: none): 0.0147 µM

GCCGUAAGUGUGAGGAUAUACCUAUGGAAACAUAGGUAGAAGGCACAUGAGGAUCACCCAUGUUCUCAAUCGGC [Mat - Exclusion 4 - Eli Mod - D5] (Eterna round: R97, puzzle: Brourd's mod of Exclusion 4)
apparent KD of MS2 coat protein (input ligand: FMN 200 uM): 0.458 µM | apparent KD of MS2 coat protein (input ligand: none): 0.245 µM

GAGCUAUGAGGAUAUGCAUAGAUACGGAUUCGUGUAGUACUACAUGAGGAUCACCCAUGUAGAAGGCGUGGCUG [JL-ex2-2.02 mat747 mod] (puzzle: Exclusion 2)
apparent KD of MS2 coat protein [3]: 0.0154 µM

AAUAACAAUGUGAGGAUAUCUAGAGCUUCGGCUCUAGAGAAGGCACAUGAGGAUCACCCAUGUCUCAAUAACAA [BmEx4/2-E6] (Eterna round: R97, puzzle: Brourd's mod of Exclusion 4)
apparent KD of MS2 coat protein (input ligand: FMN 200 uM): 0.339 µM | apparent KD of MS2 coat protein (input ligand: none): 0.0546 µM

CCAUAUAGGCGAGGAUAUACGCACCACUAACUAGUAGAAGGCGCACAUGAGGAUCACCCAUGUGAUUUCUCAAUAUUAUACAUC [Prohibition 72 - Jieux - Exclusion NG 1] (Eterna round: R96, puzzle: Exclusion NG 1)
apparent KD of MS2 coat protein (input ligand: FMN 200 uM): 0.174 µM | apparent KD of MS2 coat protein [1]: 0.107 µM | apparent KD of MS2 coat protein (input ligand: none): 0.157 µM

UGCAUGGUAGGAUAUACGGAACAUUAGGGUUUGUUAUGUAGACAUGAGGAUCACCCAUGUAGAAGGGCCGUGCU [JL-ex2-2.14 mat747 mod] (puzzle: Exclusion 2)
apparent KD of MS2 coat protein [3]: 0.0338 µM

CUGAGCUGAGGAUAUACAUGAGGAUCACCCAUGUGAAGUAGCUUGCGUACAGGCAGAUGUAGAAGGCAGUUCGG [Mod of JL 1 - Jieux - Exclusion 3] (Eterna round: R97, puzzle: Exclusion 3)
apparent KD of MS2 coat protein (input ligand: FMN 200 uM): 0.25 µM | apparent KD of MS2 coat protein (input ligand: none): 0.0421 µM

GAAAAGGUAGGAUAUACGAGAAAAAAGGGUAGAAAAAAAACACAUGAGGAUCACCCAUGUAGAAGGACCAAAAG [salish99_ex2_r3_029] (puzzle: Exclusion 2)
apparent KD of MS2 coat protein [2]: 0.0355 µM | apparent KD of MS2 coat protein [3]: 0.0231 µM | apparent KD of MS2 coat protein [4]: 0.0213 µM

AGUUAAGCAGGAUAUAUCCGGGAUAACAUGAGGAUCACCCAUGUGACCGCUUGAUAUCCUAUAGAAGGGCUUAAGA [Mod of ViennaUCT 25 - Jieux - Exclusion 5] (Eterna round: R97, puzzle: Exclusion 5)
apparent KD of MS2 coat protein (input ligand: FMN 200 uM): 0.0682 µM | apparent KD of MS2 coat protein (input ligand: none): 0.0274 µM

AUUAUAUAGACAGGAUAUUGAUUAUUAUUUUAACAUGAGGAUCACCCAUGUAACCUUAUGUGUAACAAGAAGGGUCAUUUAUUA [Title] (Eterna round: R96, puzzle: Exclusion NG 2)
apparent KD of MS2 coat protein (input ligand: FMN 200 uM): 0.188 µM | apparent KD of MS2 coat protein [1]: 0.0996 µM | apparent KD of MS2 coat protein (input ligand: none): 0.106 µM

CCUAUGUGAGGAUAUCACUGGUCUUUUCAUUAGAUGAUCAGUGAGAAGGCACAUGAGGAUCACCCAUGUCAGUG [Ex4 - 3 - 53] (Eterna round: R96, puzzle: Exclusion 4)
apparent KD of MS2 coat protein (input ligand: FMN 200 uM): 0.048 µM | apparent KD of MS2 coat protein [1]: 0.0597 µM | apparent KD of MS2 coat protein (input ligand: none): 0.11 µM

UUGAAACAUACCUCCAUAAACAUGAGGAUCACCCAUGUAAGUGAGGAUAUAGAUUGAUUAGUAUACUAGAAGGCACUUAGAUAU [JR_ExcNG3_Sub043] (Eterna round: R96, puzzle: Exclusion NG 3)
apparent KD of MS2 coat protein (input ligand: FMN 200 uM): 0.0104 µM | apparent KD of MS2 coat protein [1]: 0.0108 µM | apparent KD of MS2 coat protein (input ligand: none): 0.0105 µM
